According to patent US6537972B1, “Compositions and methods for inhibiting human immunodeficiency virus infection by down-regulating human cellular genes” (Subsidiary No. 3., Inc., priority 1997, dated 2003):

tested on: latent HIV provirus in OM10.1 cells; assay: Inhibition of TNF-α induction of latent HIV provirus in OM10.1 cells (CD4 / p24 by flow cytometry); assay type: cell-based, HIV-1; conditions: TNF-α-induced OM10.1 cells, 24 hour incubation; FIG. 25, 26
Method: OM10.1 cells were cultured in RPMI 1640 glucose-free media prior to and during incubation with NADH dehydrogenase inhibitors and TNF-α induction. The inhibitors were added to the cells followed by TNF-α induction 1-2 hours later. The expression of CD4 by the cells was assessed by anti-CD4 antibody staining and flow cytometry after 24 hour incubation at 37° C.

Molecule	induction of latent HIV provirus in OM10.1 cells (retention of CD4 expression)
CCC1(CCC(C)C)C(=O)NC(=O)NC1=O [amytal]	inhibited the induction of latent HIV provirus in OM10.1 cells in a dose-dependent manner

same assay, conditions: compared with untreated controls

Molecule	intracellular p24 levels in treated cells
CCC1(CCC(C)C)C(=O)NC(=O)NC1=O [amytal]	suppressed intracellular p24 levels

tested on: HIV-1SF2; assay: Protection of GSE-transduced CEM-ss cells from productive infection with HIV-1SF2 (intracellular p24); assay type: cell-based; conditions: HIV-1SF2 at TCID50 of 1000; versus LNGFRM vector control; FIG. 3, 23, 24
Method: In Section 6.2, infra, several GSEs were tested for their ability to protect CEM-ss cells from infection with HIV-1 strain SF2. Uninfected cells were transduced with a retroviral construct containing either vector DNA or a GSE polynucleotide. Non-transduced cells were eliminated by selection of NGFR^+ cells by an antibody or by exposure to the selection agent, G-418. The percentage of p24^+ cells was determined at specific time points post infection.
(§1) In order to determine p24 expression in HIV-infected cells, the cells were first washed twice with Assay Buffer. About 10^6 cells were suspended in 100 μl Assay Buffer, mixed with 2 ml of Ortho PermeaFix Solution (Ortho Diagnostics), and incubated for 40 min. at room temperature. After centrifugation at 1200 rpm for 4 min. at 4° C., the cells were resuspended in 2 ml Wash Buffer (500 ml PBS, 25 ml fetal bovine serum, 1.5% bovine serum albumin and 0.0055% EDTA) for 10 min. at room temperature. After centrifugation, the cells were resuspended in 50 μl Wash Buffer and mixed with 1:500 dilution of an IgG22, antibody for 20 min. at 4° C., followed by incubation with 5-10 μl of anti-p24 antibody (KC57-FITC, Coulter) for 30 min. at 4° C. The cells were then washed twice with Wash Buffer and analyzed by flow cytometry.
A total of twenty GSEs were isolated by the two aforementioned selection strategies using OM10.1 and CEM-ss cells. […]

Molecule	productive HIV infection of GSE-containing CEM-ss cells (intracellular p24+ cells)
CF-315: GSE; antisense of a sequence with identity to the gene for the ND6 subunit of human NADH dehydrogenase (nucleic acid) antisense: AGATCCTATTGGTGCGTGGGCTTTGTATGATTATGGGCGTAGATTAGTAGTAGTTACTGGTTGAACATTGTTTGTTGGTGTATATATTGTAATTGGGATTGCTCGGGGGAATAGGTTATGTGATTAGGAGTAGGG	inhibited infection of human T cells by HIV-1SF2

tested on: latent HIV-1 provirus in OM10.1 cells; assay: GSE selection by maintained CD4 expression in OM10.1 cells after TNF-α induction; assay type: cell-based; conditions: GSE from HL-60 RFE library, selected in OM10.1 cells
Method: The libraries prepared from HL-60 cells according to the method of Section 6.1.1. supra, were transfected into the packaging cell line, PA317 (ATCC CRL #9078), and converted into retrovirus for infection of OM10.1 cells. Libraries in pLNCX vector were co-cultured and selected with G418. Libraries in pLNGFRM vector were transduced by spinoculation (centrifugation of target cells at 1200 xg for 90 min. in the presence of filtered retroviral supernatant) and selected by FACS sorting of the NGFR^+ population. After selection, the OM10.1 cells harboring the entire RFE library were induced with 10 U/ml of TNF-α at 37° C., and 24 hours later, were stained with an antibody and sorted for CD4 expression. Genomic DNA from the CD4^+ cells was purified and used for PCR amplification of inserts with the vector-derived primers. The amplified mixture was digested with EcoRI and BamHI and cloned back into the retroviral vector. The selection was repeated for additional rounds.
For the immunofluorescent staining of CD4^+ cells for selection, 10^7 cells were washed twice with Assay Buffer (500 ml PBS, 1 ml of 0.5 mM of EDTA at pH 8, 0.5 ml of 10% sodium azide and 10 ml of fetal bovine serum), and resuspended in 500 μl PBS to which 50 μl of anti-CD4 antibody (Q4120 PE, Sigma) was added. After incubation at 4° C. for 30 min., 5 ml of Assay Buffer was added and the cells centrifuged at 1200 rpm for 4 min. The cells were washed twice with Assay Buffer before sorting by FACS. The aforementioned procedure was performed under sterile conditions.
GSEs derived from cDNAs representing expressed human cellular genes were identified and isolated from a RFE library made from HL-60 cells using HIV provirus activation in OM10.1 cells as a read-out. Following transfection of the entire library into a packaging cell line, retrovirus carrying the library was used to infect OM10.1 cells by co-cultivation or spinoculation, and NGFR selection was performed to ensure the retention of the viral vector. When the infected cells were treated with TNF-α, a small number of residual CD4^+ cells were detected by an anti-CD4 antibody and sorted by FACS. The GSEs contained in these cells were recovered by PCR amplification and their nucleotide sequences determined.

Molecule	suppression of HIV replication by the GSE
CF-117: GSE; antisense, gene for the ND6 subunit of human NADH dehydrogenase (nucleic acid) antisense: GTGAAAGAGTATGATGGGGTGGTGGTTGTCGTAAACTTTAATAGTGTAGGAAGCTGAATAATTTATAAAGGAGAGGGGACAGGGTTGATTCGGGAGGATC	suppresses HIV activities
CF-319: GSE; sense, identity with the gene for the ND6 subunit of human NADH dehydrogenase (nucleic acid) sense: GATCCTCCCGAATCAACCCTGACCCCTCTCCTTCATAAATTATTCAGCTTCCTACACTATTAAAGTTTACCACAACCACCACGCCATCATACTCCTTCAC	suppresses HIV replication
CF-315: GSE; antisense of a sequence with identity to the gene for the ND6 subunit of human NADH dehydrogenase (nucleic acid) antisense: AGATCCTATTGGTGCGTGGGCTTTGTATGATTATGGGCGTAGATTAGTAGTAGTTACTGGTTGAACATTGTTTGTTGGTGTATATATTGTAATTGGGATTGCTCGGGGGAATAGGTTATGTGATTAGGAGTAGGG	suppresses HIV replication
CF-101: GSE; sense, identity with the gene for the ND2 subunit of human NADH dehydrogenase (nucleic acid) sense: CATCAGCCCTTCTTAACATCTACTTCTACCTACGCCTAATCTACTCCACCTCAATCACACTACTCCCCATATCTAACAACGTAAAAATAAAATGACAGTTTGAGCATACAAAACCCACCCCATTCCTCCCCACACTCATCGCC	HIV-suppressive activities

tested on: HIV-1IIIB; assay: GSE selection by prevention of productive infection of CEM-ss cells by HIV-1IIIB; assay type: cell-based; conditions: GSE from HeLa RFE library, selected in CEM-ss cells
Method: Additionally, a normalized RFE library made from HeLa cells was transferred into CEM-ss cells and the neo resistant population was infected with TCID50 of 3000/10^6 cells of HIV-1IIIB. This RFE library was represented by 50×10^6 independent recombinant clones. Four and seven days after infection, a purified anti-CD4 monoclonal antibody, L77 (Becton Dickinson), was added at 5 μg/ml to prevent syncytia formation. Syncytia formation is thought to be prevented by blocking the interaction between gp120 expressed on the surface of an infected cell and CD4 on the surface of an uninfected cell. […] At 10-12 days after infection, CD4^+, p24^− cell population representing uninfected cells were sorted. Genomic DNA from the CD4^+, p24^− cells was purified and used for PCR amplification of inserts with the vector-derived primers. The amplified mixture was digested with EcoRI and BamHI and cloned back into the retroviral vector. The selection was repeated for additional rounds.
as §1

Molecule	suppression of HIV infection by the GSE
CF-286: GSE; sense, gene encoding human elongation factor 1 alpha (nucleic acid) sense: CAGTTGGGGTGGGTGTCATCAAAGCAGTGGACAAGAAGGCTGCTGGAGCTGGCAAGGTCACCAAGTCTGCCCAGAAAGCTCAGAAGGCTAAATGAATATTATCCCTAATACCTGCCACCCCACTCTTAATCAGTGGTGGAAGAAC	suppresses HIV infection
CF-210: GSE; sense, gene encoding human herpesvirus-associated ubiquitin-specific protease (HAUSP) (nucleic acid) sense: GCATTACAAAGAGTGTTCTATGAATTACAGCATAGTGATAAACCTGTAGGAACAAAAAAGTTAACAAAGTCATTTGGGTGGGAAACTTTAGATAGCTTCATGCAACATGATGTT	suppresses HIV infection
CF-025: GSE; antisense, gene for the ND2 subunit of human NADH dehydrogenase (nucleic acid) antisense: GAAGAAGCAGGCCGGATGTCAGAGGGGTGCCTTGGGTAACCTCTGGGACTCAGAAGTGAAAGGGGGCTATTCCTAGTTTTATTGCTATAGCCATTATGATTATTAATGATGAGTAT	suppresses HIV infection
CF-311: GSE; antisense, gene encoding a human protein tyrosine phosphatase (nucleic acid) antisense: GGGGGCTCTGTTTGGTGGTCTCTCTAGCTGCACTGGTCTATCAAGCTGTTGGCTGGTCTCTCTCTCTGGCTGGGGATC	suppresses HIV infection
CF-128: GSE; sense, gene for the ND4 subunit of human NADH dehydrogenase (nucleic acid) sense: TCCTAGTCCTCACAATCATGGCAAGCCAGCGCCACTTATCCAGTGAACCACTATCACGAAAAAAACTCTACCTCTCTATACTAATCTCCCTACAAATCTCCTTAATTATAATATTCACAACCACAGA	suppresses HIV infection
CF-302: GSE; antisense, gene encoding CD44 (nucleic acid) antisense: GATCCCTGGGCGCGGGGCAGGGGCCGGCGGAGGACGGGACGAGGATGGCGGACCGAACCTGGCAGAGGCTGGG	suppresses HIV infection
CF-273: GSE; sense, gene encoding human eukaryotic initiation factor 3 (nucleic acid) sense: GCTCGTCAGTGTCCACCCCTCCTCGCAACTCCAGGCGCTCCTTTTTCTGCTCCATATAGAGCTCCTGGGCCATTTTCCGGTACTTCCGGAAATCTTCCATCATGGTGCGCCTTC	suppresses HIV infection
CF-004: GSE; sense, gene encoding human 2-oxoglutarate dehydrogenase (nucleic acid) sense: GCGCAAAGCACGCGACATGGTGGGGCAGGTGGCCATCACAAGGATTGAGCAGCTGTCGCCATTCCCCTTTGACCTCCTGCTGAAGGAGGTGCAGAAGTACCCCAA	suppresses HIV infection
CF-266: GSE; antisense, gene encoding human eukaryotic initiation factor 4B (nucleic acid) antisense: GCCGTTCTTCTACTTCTCTTTCTCAAGCAGCAGTGTCAACAGGCTTTGCCCCTCCAAAGATAGAAGCAGCTCGAGTGGACTGGGAGGTACTAGCAGA	suppresses HIV infection
CF-317: GSE; antisense, gene encoding phosphatidyl-inositol 3 kinase (nucleic acid) antisense: CCAAGCTTCCTATCTTAAGCTGGGCGTTGATATCCAGGTCACAACTATAGATGTAGTGAAACTTCTCTGCTTCCCCCATCGCACCGTCTGCAAAGGTACCACC	suppresses HIV infection
CF-313: GSE; sense, gene encoding a human protein tyrosine phosphatase (nucleic acid) sense: CATTTTGTTACATAAGGATGACTTTTTTATACAATGGAATAAATTATGGCATTTCTATTGAAATTTCAACGCTTTTGTTTCTTTGGCAACCACAC	suppresses HIV infection
CF-204: GSE; antisense, gene encoding human calnexin (nucleic acid) antisense: GGTTGTCAATCACAGGTCGCCACCAGACACCACATCCAGGAGCTGACTCACATCTAGGGTTGGCAATCTGAGGAGCCTCCCATTCTCCATCCATGTCTTCATCCCAA	suppresses HIV infection
